Results on 2 molecules are retold here after PMC3949526, “The structure of an authentic spore photoproduct lesion in DNA suggests a basis for recognition”.

Series [1] has as its target T1, N-terminal fragment of MMLV reverse transcriptase (fingers and palm domains) (Moloney murine leukemia virus, UniProt P03355 683-937). In words: X-ray crystallography (1.72 A); host-guest complex; undamaged DNA; Crystallization: protein 2 mM in 50 mM MES pH 6.0, 0.3 M NaCl, 1 mM DTT; DNA 2.5 mM duplex in 10 mM HEPES pH 7.0, 10 mM MgCl2; crystallization buffer and temperature not given in the material. The conditions noted are these: protein: recombinant; tags: 6xHis tag removed with thrombin; chain copies: 2; blunt; self-complementary, 2 copies of one strand.

Series [2] deals with T1, N-terminal fragment of MMLV reverse …. In words: X-ray crystallography (2.14 A); host-guest complex; SP lesions in central 10 bp, free of protein contacts; Crystallization: protein 2 mM in 50 mM MES pH 6.0, 0.3 M NaCl, 1 mM DTT; DNA 2.5 mM duplex in 10 mM HEPES pH 7.0, 10 mM MgCl2; crystallization buffer and temperature not given in the material. The conditions noted are these: protein: recombinant; tags: 6xHis tag removed with thrombin; chain copies: 2; blunt; self-complementary, 2 copies of one strand.

T1 sequence (P03355 683-937): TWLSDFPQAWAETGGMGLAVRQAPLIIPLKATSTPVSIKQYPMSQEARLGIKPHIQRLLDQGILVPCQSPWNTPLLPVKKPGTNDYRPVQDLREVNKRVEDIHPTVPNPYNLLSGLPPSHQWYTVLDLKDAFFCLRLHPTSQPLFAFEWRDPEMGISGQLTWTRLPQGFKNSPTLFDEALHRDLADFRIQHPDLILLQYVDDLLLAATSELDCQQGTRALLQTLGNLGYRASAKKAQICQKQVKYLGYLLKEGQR

B1: non-SP DNA 16-mer (dsDNA)
DNA 1: ATCCGTTATAACGGAT
DNA 2: ATCCGTTATAACGGAT
Turning to B1, in series [1], the binding result is reported as “binds”.

B2: SP DNA 16-mer (dsDNA)
DNA 1: ATCCGTTATAACGGAT
DNA 2: ATCCGTTATAACGGAT
modifications: spore photoproduct (5-thyminyl-5,6-dihydrothymine) linking T6 and T7 in each strand
For B2, the binding result in series [2] is given as “binds”.
